From PMC4359968 (Cancer research, 2015)

Molecular target: RAGE-Fc (human RAGE) (human, UniProt Q15109 23-342)
Assay: ELISA

RAGE-Fc (human RAGE), sequence (Q15109 23-342): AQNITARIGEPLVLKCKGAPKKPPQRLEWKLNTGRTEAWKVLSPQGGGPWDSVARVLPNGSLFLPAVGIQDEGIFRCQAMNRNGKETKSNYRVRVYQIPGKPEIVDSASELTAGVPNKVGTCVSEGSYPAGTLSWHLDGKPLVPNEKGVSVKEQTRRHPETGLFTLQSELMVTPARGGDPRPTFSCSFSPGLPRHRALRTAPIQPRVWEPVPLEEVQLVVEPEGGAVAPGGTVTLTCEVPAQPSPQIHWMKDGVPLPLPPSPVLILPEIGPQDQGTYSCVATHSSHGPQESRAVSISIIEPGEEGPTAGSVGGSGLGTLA

binding result: binds
B1: human recombinant S100A7 (ligand, UniProt P31151 1-101, looked up)
chain: MSNTQAERSIIGMIDMFHKYTRRDDKIEKPSLLTMMKENFPNFLSACDKKGTNYLADVFEKKDKNEDKKIDFSEFLSLLGDIATDYHKQSHGAAPCSGGSQ
